# Results taken from publication PMC5289646, “Proline Metabolism is Essential for Trypanosoma brucei brucei Survival in the Tsetse Vector” (PLoS Pathogens, 2017).
# B1: TbP5CDH (Trypanosoma brucei brucei TREU927) (protein)
# chain: PPAVNERMDSFQPGSDSARGTLEACKRLRCGATDCPIVIGGKEYRTDNAINRMIPSSHQQQVAKGYNATPELAQKAIDTALGAAKEWSQMPFKDRAAIFLHAAHLISTKYRHELRAATMLGQSKNPFQAEIDVIAESCDFLRFSVKYAEELYNQQPISPASGPVWNALDYRPLEGFVSVIAPFNFSAIAANLVACPALMGNVILWKPSPNAVLSNYLLYKVFEEAGLPAGVVNFMPCEPKVMTEVVNSHPELAGVAFTGSTNVFLSINKQIYSRLEEYRNIPRISGETGGKDFHLIHPTADMKMTAALTVRGAFEYQGQKCSATSRIYVPQSRWEELKGYLLELHGKLKMGQPDDFQSFMCAVIDETAFDRNKKYIDIAKADSSAYTIIAGGGCDKSEGWFIQPTIIVAKDPNAQLLREEIFGPILTVHVYDDSKPDFWSEACNLVNNATKYALTGSIFAQDRKAIRDATEKHLRYAAGNYYINDKCTGAVVGQQPFGGARASGSNDKPGSALFLTRWVSARTIKENFDHSAQVSYPHQLPDYVTL
# Key:
# [1] = substrate: NC(=O)c1ccc[n+]([C@@H]2O[C@H](COP(=O)(O)OP(=O)(O)OC[C@H]3O[C@@H](n4cnc5c(N)ncnc54)[C@H](O)[C@@H]3O)[C@@H](O)[C@H]2O)c1; assay: cells, lysate or membranes; settings: 600 μM P5C/γGS (saturating), 0.01-2.5 mM NAD+, potassium phosphate pH 7.2, 28°C, crude homogenate, varied: cofactor
# [2] = substrate: O=C(O)C1CCC=N1; assay: cells, lysate or membranes; settings: 1 mM NAD+ (saturating), 20-600 μM P5C/γGS, potassium phosphate pH 7.2, 28°C, racemic substrate in equilibrium with open form, crude homogenate
protein,measurement,setting,value
B1,Km,[1],0.38 ± 0.04 mM
same,Km,[2],92.7 ± 14 µM
